According to article PMC7707817:

Columns and labels:
[1] = biological target: ClpP+C (E. coli ClpP C91V, C113A with a cysteine appended after Asn193) (E. coli); experiment: SEC; Superdex-200 of the quenched cross-linking reaction; 50 mM HEPES-KOH pH 7.5, 300 mM NaCl, 20 mM MgCl2, 10% glycerol, 2 mM TCEP; peak 2 = uncrosslinked ClpP+C
[2] = biological target: ClpP+C (E. coli ClpP C91V, C113A with a cysteine appended after Asn193) (E. coli); experiment: cross-linking; E613CClpA‡ (4 µM) and ClpP+C (9.6 µM) mixed; 50 mM HEPES-KOH pH 7, 300 mM NaCl, 20 mM MgCl2, 10% glycerol, 5 mM EDTA; 5 mM ATPγS, 200 µM bismaleimidoethane (BMOE), room temperature, 45 min; quenched with 50 mM DTT; peak-1 pool of Superdex-200 SEC read by reducing SDS-PAGE (Coomassie)

Row | stoichiometry N [1] | percent of ClpA crosslinked to ClpP [2] | Substance
1 | 14 |  | ClpP+C (E. coli ClpP C91V, C113A with a cysteine appended after Asn193) (enzyme)
2 |  | 90% | E613C ClpA‡ (E. coli ClpAΔC9 with C47S, C203S, C243S and E613C) (from UniProt P0ABH9 1-749) (enzyme)
